One may read the stoichiometry N as the number of molecules, sites or subunits per partner or assembly.

For the test, the target named is Acinetobacter baumannii AdeJ multidrug efflux pump (Acinetobacter baumannii AB0057). Description: cryo-EM structure; single-particle cryo-EM of 10 uM AdeJ-nanodisc (MSP 1E3D1, E. coli total lipid extract) incubated with 20 uM TP-6076 for 1 h; 2.91 Å; asymmetric trimer of access, binding and extrusion protomers.

For the substance “Acinetobacter baumannii AdeJ multidrug efflux pump (natural protein)”, the stoichiometry N turned out to be 3.

The values above are taken from PMC8805024.
